In US20060093617A1:
Where two headings read alike, the source gives them in different places.

Experiments:
HLA-B0702 (human) [1] = experiment: competition vs 125I-labelled probe peptide, purified soluble HLA
HLA-B*0702 (human) = experiment: competition with 125I-labeled probe peptide, purified HLA
HLA-A0101 (human) = experiment: competition with 125I-labelled probe peptide, purified HLA
HLA-A*0101 (human) = experiment: competition with 125I-labelled probe peptide on purified HLA-A*0101
HLA-A0301 (human) = experiment: competition vs 125I-labelled probe peptide, purified soluble HLA
HLA-B0702 (human) [2] = conditions: remark: other sources report otherwise
HLA-B0801 (human) [3] = experiment: competition with 125I-labelled probe peptide, purified HLA
HLA-B0702 (human) [4] = experiment: competition vs 125I probe peptide, purified HLA; conditions: remark: other sources report otherwise
HLA-B0702 (human) [5] = experiment: competition with 125I-labelled probe peptide on purified soluble HLA; conditions: remark: other sources report otherwise
HLA-B0801 (human) [6] = experiment: competition vs 125I probe peptide, purified HLA; conditions: remark: other sources report otherwise
HLA-DRB1*0101 (human) = experiment: competition with 125I-labelled probe peptide on purified HLA-DR; conditions: remark: other sources report otherwise

AAKLSALGL (modifications not checked)
Ki (HLA-B0702 (human) [1]): 277 nM | IC50 (HLA-B*0702 (human)): 277 nM

FTDNSSPPA (modifications not checked)
Ki (HLA-A0101 (human)): 10 nM | IC50 (HLA-A*0101 (human)): 10 nM

LHGPTPLLY (modifications not checked)
Ki (HLA-A0101 (human)): 20000 nM

YLFNWAVRTK (modifications not checked)
Ki (HLA-A0301 (human)): < 1000 nM

QPRGRRQPI (modifications not checked)
Ki (HLA-B0702 (human) [2]): < 1000 nM | Ki (HLA-B0801 (human) [3]; remark: other sources report otherwise): 3 nM | Ki (HLA-B0702 (human) [4]): 1 nM | Ki (HLA-B0702 (human) [5]): 1 nM

EARQAIRSL (modifications not checked)
Ki (HLA-B0801 (human) [6]): 9 nM

YLKGSSGGPL (modifications not checked)
Ki (HLA-B0801 (human) [3]): 10 nM

ARALAHGVRV (modifications not checked)
Ki (HLA-Cw0602 (human)): 9880 nM

SYTWTGALITPCAAE (modifications not checked)
IC50 (HLA-DRB1*0101 (human)): 5.63 nM
